Molecular target: T1, upf1-DE572AA-GFP (S. cerevisiae, UniProt P30771 1-971, DE572AA)
T1 sequence (looked up): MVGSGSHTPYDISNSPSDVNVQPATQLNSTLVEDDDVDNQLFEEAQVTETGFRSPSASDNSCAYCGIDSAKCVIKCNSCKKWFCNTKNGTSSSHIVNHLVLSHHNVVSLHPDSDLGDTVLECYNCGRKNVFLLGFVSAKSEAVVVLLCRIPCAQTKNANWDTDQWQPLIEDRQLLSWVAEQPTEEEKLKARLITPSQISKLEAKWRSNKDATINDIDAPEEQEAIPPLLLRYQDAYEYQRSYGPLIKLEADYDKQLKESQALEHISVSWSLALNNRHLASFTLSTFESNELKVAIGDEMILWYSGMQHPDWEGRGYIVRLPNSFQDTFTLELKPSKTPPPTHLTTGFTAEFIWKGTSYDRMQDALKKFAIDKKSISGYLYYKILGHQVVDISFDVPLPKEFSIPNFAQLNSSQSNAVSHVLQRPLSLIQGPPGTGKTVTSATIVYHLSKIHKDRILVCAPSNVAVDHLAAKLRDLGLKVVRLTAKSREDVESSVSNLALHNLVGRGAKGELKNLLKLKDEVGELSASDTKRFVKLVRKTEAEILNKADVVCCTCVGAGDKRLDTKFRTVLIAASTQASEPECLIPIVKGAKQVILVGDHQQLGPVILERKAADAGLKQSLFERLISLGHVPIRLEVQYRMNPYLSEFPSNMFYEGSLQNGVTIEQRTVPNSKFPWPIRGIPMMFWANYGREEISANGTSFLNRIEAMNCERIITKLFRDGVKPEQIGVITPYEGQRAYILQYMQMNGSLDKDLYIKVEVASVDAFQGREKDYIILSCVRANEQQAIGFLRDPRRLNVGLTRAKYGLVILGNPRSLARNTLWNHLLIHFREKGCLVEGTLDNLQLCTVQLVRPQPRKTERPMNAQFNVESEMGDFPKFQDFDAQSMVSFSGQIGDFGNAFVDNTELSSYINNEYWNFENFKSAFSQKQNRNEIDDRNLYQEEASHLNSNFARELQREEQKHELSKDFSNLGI
Assay: co-IP

fold co-precipitation relative to wild-type Upf1-GFP: > 1.5 fold
B1: Gbp2 (natural protein, UniProt P25555 1-427, looked up)
chain: MERELGMYGNDRSRSRSPVRRRLSDDRDRYDDYNDSSSNNGNGSRRQRRDRGSRFNDRYDQSYGGSRYHDDRNWPPRRGGRGRGGSRSFRGGRGGGRGRTLGPIVERDLERQFDATKRNFENSIFVRNLTFDCTPEDLKELFGTVGEVVEADIITSKGHHRGMGTVEFTKNESVQDAISKFDGALFMDRKLMVRQDNPPPEAAKEFSKKATREEIDNGFEVFIINLPYSMNWQSLKDMFKECGHVLRADVELDFNGFSRGFGSVIYPTEDEMIRAIDTFNGMEVEGRVLEVREGRFNKRKNNDRYNQRREDLEDTRGTEPGLAQDAAVHIDETAAKFTEGVNPGGDRNCFIYCSNLPFSTARSDLFDLFGPIGKINNAELKPQENGQPTGVAVVEYENLVDADFCIQKLNNYNYGGCSLQISYARRD

— PMC8489946 (RNA Biology, 2021)
